Data: paper PMC8028046 (Biochemistry, 2021)

Target: the molecule itself
Experiment: SEC; elution profiles of proSP-C BRICHOS WT and T187R

B1: proSP-C BRICHOS WT (domain or fragment, human, UniProt P11686 59-197, looked up)
chain: HMSQKHTEMVLEMSIGAPEAQQRLALSEHLVTTATFSIGSTGLVVYDYQQLLIAYKPAPGTCCYIMKIAPESIPSLEALTRKVHNFQMECSLQAKPAVPTSKLGQAEGRDAGSAPSGGDPAFLGMAVSTLCGEVPLYYI
notes: human proSP-C (surfactant protein C precursor), BRICHOS domain, residues 59-197 of UniProt P11686; Mainly trimeric; The mutant's mass of 18328 Da is larger than residues 59-197 alone would give, so the construct probably carries extra residues (surmise); also called proSP-C BRICHOS domain; WT proSP-C BRICHOS domain
- binding result: binds
